Common to all, as to conditions: both partners purified
Assay [1] addresses T1, AnkB_MBD (AnkB ANK repeats only, aa 28–827) (human, UniProt Q01484-2 28-827).
T1 construct: ankyrin-B (AnkB), human 220 kDa isoform, residues 28-827: the 24 ANK repeats (MBD), no linker; numbers count on: human 220 kDa AnkB NM_020977.3; Poor quality in 100 mM NaCl buffer; also called AnkB 28–827; source: E. coli BL21 (DE3), purified (Ni2+-NTA, size exclusion)
T1 sequence (looked up): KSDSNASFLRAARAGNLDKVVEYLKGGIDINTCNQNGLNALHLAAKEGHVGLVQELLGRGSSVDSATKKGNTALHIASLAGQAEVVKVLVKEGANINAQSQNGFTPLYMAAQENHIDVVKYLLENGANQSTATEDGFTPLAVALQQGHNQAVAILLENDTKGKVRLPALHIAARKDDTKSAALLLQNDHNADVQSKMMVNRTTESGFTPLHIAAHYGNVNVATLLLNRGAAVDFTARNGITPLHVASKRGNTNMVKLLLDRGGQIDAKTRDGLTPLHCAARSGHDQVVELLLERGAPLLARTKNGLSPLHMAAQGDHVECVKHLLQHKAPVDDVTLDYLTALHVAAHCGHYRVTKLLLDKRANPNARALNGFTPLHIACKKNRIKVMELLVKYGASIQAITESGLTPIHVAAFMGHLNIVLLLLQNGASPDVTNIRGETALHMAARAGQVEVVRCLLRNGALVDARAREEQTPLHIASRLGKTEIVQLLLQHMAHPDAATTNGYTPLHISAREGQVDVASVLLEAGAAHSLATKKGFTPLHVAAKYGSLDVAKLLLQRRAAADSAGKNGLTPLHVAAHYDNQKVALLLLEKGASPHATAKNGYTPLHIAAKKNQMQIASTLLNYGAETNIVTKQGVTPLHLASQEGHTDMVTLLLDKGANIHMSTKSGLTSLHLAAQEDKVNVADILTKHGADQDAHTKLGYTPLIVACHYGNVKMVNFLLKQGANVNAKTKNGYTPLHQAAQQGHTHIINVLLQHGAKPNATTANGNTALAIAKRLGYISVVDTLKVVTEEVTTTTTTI
Description: ITC; VP-ITC MicroCal, 25 °C; buffer containing 500 mM NaCl, due to poor quality of AnkB 28-827 in 100 mM NaCl buffer.

The target of assay [2] is T2, AnkB 28–847 (MBD + partial AI-c) (human, UniProt Q01484-2 28-847).
T2 construct: ankyrin-B (AnkB), human 220 kDa isoform, residues 28-847: MBD and a short 20-residue linker; numbers count on: human 220 kDa AnkB NM_020977.3; also called extended MBD with a short 20-residue linker; source: E. coli BL21 (DE3), purified (Ni2+-NTA, size exclusion)
T2 sequence (looked up): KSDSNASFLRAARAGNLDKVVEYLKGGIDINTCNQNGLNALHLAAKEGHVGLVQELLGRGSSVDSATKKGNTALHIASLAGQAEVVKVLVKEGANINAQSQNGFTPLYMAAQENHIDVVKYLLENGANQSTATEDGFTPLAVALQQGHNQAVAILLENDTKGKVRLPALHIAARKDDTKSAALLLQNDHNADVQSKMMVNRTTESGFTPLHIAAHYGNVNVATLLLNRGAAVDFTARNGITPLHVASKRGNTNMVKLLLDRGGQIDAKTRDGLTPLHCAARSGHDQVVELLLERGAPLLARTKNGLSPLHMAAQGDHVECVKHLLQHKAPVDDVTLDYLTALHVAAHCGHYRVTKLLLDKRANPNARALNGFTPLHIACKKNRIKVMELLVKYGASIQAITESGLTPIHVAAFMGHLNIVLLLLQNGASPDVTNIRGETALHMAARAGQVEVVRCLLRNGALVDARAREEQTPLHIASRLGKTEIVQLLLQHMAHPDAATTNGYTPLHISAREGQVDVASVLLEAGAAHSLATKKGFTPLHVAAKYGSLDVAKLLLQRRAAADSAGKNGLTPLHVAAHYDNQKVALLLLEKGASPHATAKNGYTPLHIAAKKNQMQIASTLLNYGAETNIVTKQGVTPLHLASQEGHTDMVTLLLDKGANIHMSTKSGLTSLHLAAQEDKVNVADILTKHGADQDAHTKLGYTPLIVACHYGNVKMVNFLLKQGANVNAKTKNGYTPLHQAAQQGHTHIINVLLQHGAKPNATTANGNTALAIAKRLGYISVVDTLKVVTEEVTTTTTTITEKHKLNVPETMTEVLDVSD
Description: ITC; VP-ITC MicroCal, 25 °C; proteins in 50 mM Tris-HCl pH 7.8, 1 mM DTT, 1 mM EDTA with 100 mM or 500 mM NaCl as required; who was titrated is not told.

The target of assay [3] is T1, AnkB_MBD (AnkB ANK repeats only, aa …). Nature of the assay: fluorescence polarisation; PerkinElmer LS-55 fluorimeter with automated polarizer, 25 °C; one-site binding model. (In general: Polarisation of emitted light reports the rotation of a fluorescent probe.)
Assay [4] deals with T3, AnkG 38–855 (AnkG MBD-AI-c protein; MBD + partial AI-c) (rat, UniProt O70511-1 38-855).
T3 construct: numbers count on: rat AnkG NM_001033984.1 (MBD-UPA); also called AnkG WT; source: E. coli BL21 (DE3), purified (Ni2+-NTA, size exclusion)
T3 sequence (looked up): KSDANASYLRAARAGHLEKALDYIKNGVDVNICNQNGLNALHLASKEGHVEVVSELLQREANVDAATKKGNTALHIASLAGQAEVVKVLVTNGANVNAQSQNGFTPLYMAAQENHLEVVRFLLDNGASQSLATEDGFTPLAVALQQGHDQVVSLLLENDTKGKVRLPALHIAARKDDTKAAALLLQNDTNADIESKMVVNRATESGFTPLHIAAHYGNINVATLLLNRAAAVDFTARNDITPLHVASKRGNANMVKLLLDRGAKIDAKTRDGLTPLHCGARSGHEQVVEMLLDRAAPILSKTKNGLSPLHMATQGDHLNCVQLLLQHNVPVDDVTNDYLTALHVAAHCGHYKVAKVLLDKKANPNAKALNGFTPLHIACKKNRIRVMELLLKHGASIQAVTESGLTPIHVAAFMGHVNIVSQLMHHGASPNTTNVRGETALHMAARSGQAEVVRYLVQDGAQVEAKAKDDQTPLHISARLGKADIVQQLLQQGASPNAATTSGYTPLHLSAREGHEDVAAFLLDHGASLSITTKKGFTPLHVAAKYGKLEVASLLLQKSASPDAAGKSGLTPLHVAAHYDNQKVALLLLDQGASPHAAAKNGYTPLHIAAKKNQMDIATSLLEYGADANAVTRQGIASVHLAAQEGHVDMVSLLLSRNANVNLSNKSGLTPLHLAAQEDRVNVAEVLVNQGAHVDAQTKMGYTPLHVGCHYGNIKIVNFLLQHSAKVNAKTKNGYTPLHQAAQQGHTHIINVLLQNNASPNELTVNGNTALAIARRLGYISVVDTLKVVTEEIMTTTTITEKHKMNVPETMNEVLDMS
Description: ITC; VP-ITC MicroCal, 25 °C; proteins in 50 mM Tris-HCl pH 7.8, 1 mM DTT, 1 mM EDTA with 100 mM or 500 mM NaCl as required; who was titrated is not told.

Assay [5] has as its target T4, AnkG 38–903 (MBD + AI-c + AI-b) (rat, UniProt O70511-1 38-903).
T4 construct: numbers count on: rat AnkG NM_001033984.1 (MBD-UPA); also called extended AnkG MBD; source: E. coli BL21 (DE3), purified (Ni2+-NTA, size exclusion)
T4 sequence (looked up): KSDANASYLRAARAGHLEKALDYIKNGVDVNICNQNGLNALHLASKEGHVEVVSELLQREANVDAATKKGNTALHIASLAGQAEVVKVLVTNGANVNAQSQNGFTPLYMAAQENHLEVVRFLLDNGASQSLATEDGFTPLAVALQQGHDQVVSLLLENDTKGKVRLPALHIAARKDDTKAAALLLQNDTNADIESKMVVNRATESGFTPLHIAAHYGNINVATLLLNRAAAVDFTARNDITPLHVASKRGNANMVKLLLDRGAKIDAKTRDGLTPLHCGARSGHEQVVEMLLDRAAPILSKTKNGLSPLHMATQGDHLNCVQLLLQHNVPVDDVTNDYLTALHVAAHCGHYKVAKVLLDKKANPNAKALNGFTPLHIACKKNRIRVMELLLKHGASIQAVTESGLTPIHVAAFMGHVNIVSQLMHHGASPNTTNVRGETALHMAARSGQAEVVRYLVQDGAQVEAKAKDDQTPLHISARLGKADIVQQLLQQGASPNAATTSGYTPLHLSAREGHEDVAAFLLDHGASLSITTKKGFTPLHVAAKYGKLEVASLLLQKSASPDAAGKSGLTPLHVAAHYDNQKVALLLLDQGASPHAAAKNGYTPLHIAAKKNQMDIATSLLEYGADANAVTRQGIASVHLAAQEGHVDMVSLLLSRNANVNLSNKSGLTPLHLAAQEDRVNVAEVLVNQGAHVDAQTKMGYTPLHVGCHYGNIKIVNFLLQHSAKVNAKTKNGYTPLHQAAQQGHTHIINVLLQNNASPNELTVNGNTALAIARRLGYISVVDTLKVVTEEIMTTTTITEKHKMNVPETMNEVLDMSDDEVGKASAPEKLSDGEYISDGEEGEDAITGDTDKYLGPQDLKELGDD
The assay is described as above.

Assay [6] has as its target T1, AnkB_MBD (AnkB ANK repeats only, aa …). The description is as above.

In general, Kd refers to the concentration at which binding is half-saturated.

B1: AnkB entire linker (aa 828–965) (domain or fragment, human, UniProt Q01484-2 828-965, looked up)
chain: TEKHKLNVPETMTEVLDVSDEEGDDTMTGDGGEYLRPEDLKELGDDSLPSSQFLDGMNYLRYSLEGGRSDSLRSFSSDRSHTLSHASYLRDSAVMDDSVVIPSHQVSTLAKEAERNSYRLSWGTENLDNVALSSSPIH
notes: numbers count on: human 220 kDa AnkB NM_020977.3; also called Linker (contains AI-c + AI-b); AnkB linker region; source: E. coli BL21 (DE3), purified (Ni2+-NTA, size exclusion)
B1: the Kd in assay [1] was around 0.044 µM; in assay [2] it was around 4.2 µM.

B2: AnkB_AI-a peptide (aa 1623–1635) (peptide, UniProt Q01484-2 1623-1635, looked up)
peptide: HPPIVSEEDISVG
notes: ankyrin-B (AnkB), human 220 kDa isoform, 13-residue AI-a segment of the C-terminal tail, residues 1623-1635; numbers count on: human 220 kDa AnkB NM_020977.3; The text says a peptide encompassing the AI-a segment, so it may be longer than 1623-1635; The fluorescent label of the polarisation assay is not described here (protocol of Wang et al., 2014)
Regarding B2, in assay [3], the Kd is around 7.3 µM.

B3: AnkG_AI-b (aa 875–903) (domain or fragment, rat, UniProt O70511-1 875-903, looked up)
chain: SDGEEGEDAITGDTDKYLGPQDLKELGDD
notes: numbers count on: rat AnkG NM_001033984.1 (MBD-UPA); source: E. coli BL21 (DE3), purified (Ni2+-NTA, size exclusion)
Turning to B3, in assay [4], the binding result is “binds”.

B4: E-cadherin (aa 734–884) (domain or fragment)
chain: not shown
notes: source: E. coli BL21 (DE3), purified (Ni2+-NTA, size exclusion)
Turning to B4, the binding result in assay [4], in assay [5] and in assay [2] was “binds” throughout.

B5: AnkG long linker (aa 837–920; AI-c + AI-b) (domain or fragment, rat, UniProt O70511-1 837-920, looked up)
chain: TEKHKMNVPETMNEVLDMSDDEVGKASAPEKLSDGEYISDGEEGEDAITGDTDKYLGPQDLKELGDDSLPAEGYVGFSLGARSA
notes: as for B3
Consider B5, for which the binding result in assay [4] is “binds”.

B6: AnkB_AI-c Asn834Lys (domain or fragment, human, UniProt Q01484-2 828-852, looked up)
chain: TEKHKLKVPETMTEVLDVSDEEGDD
notes: numbers count on: human 220 kDa AnkB NM_020977.3; source: E. coli BL21 (DE3), purified (Ni2+-NTA, size exclusion)
For B6, in assay [6], the binding result is on record as “binds”.

B7: AnkB_AI-c Met839Gln (domain or fragment, human, UniProt Q01484-2 828-852, looked up)
chain: TEKHKLNVPETQTEVLDVSDEEGDD
notes: as for B6
For the molecule B7, the binding result in assay [6] is “binds”.

B8: AnkB_AI-c Leu843Gln (domain or fragment, human, UniProt Q01484-2 828-852, looked up)
chain: TEKHKLNVPETMTEVQDVSDEEGDD
notes: as for B6
On to B8, for which, in assay [6], the binding result is on record as “binds”.

B9: AnkB_AI-b (aa 865–896) (domain or fragment, human, UniProt Q01484-2 865-896, looked up)
chain: EDLKELGDDSLPSSQFLDGMNYLRYSLEGGRS
notes: numbers count on: human 220 kDa AnkB NM_020977.3; also called 32-aa fragment; source: E. coli BL21 (DE3), purified (Ni2+-NTA, size exclusion)
In the case of B9, the binding result in assay [2] was “binds”.

B10: AnkG linker ΔAI-c (aa 861–920) (domain or fragment, rat, UniProt O70511-1 861-920, looked up)
chain: KASAPEKLSDGEYISDGEEGEDAITGDTDKYLGPQDLKELGDDSLPAEGYVGFSLGARSA
notes: ankyrin-G (AnkG), rat, linker residues 861-920, lacking AI-c; numbers count on: rat AnkG NM_001033984.1 (MBD-UPA); also called AnkG 861–920; shorter version of the linker; source: E. coli BL21 (DE3), purified (Ni2+-NTA, size exclusion)
Turning to B10, in assay [4], the binding result is recorded as “binds”.
